Data: patent US20110300156A1 (Genmab, published 2011)
Positions count from the first letter of the chain named. Each block holds one binder with its values, some of them ahead of it.

Key:
[1] = biological target: T1, human tissue factor (TF), membrane-bound on cells (human, UniProt P13726 33-295); assay: FACS, Fab fragment on BxPC3 cells
T1 construct: whole, on cells; also called cellular TF
Protocol: (§1) Cells were resuspended in PBS (2×10⁶ cells/ml), put in 96-well V-bottom plates (50 μl/well). 50 μl of serially diluted HuMab in FACS buffer (PBS supplemented with 0.1% BSA and 0.02% Na-azide) was added to the cells and incubated for 30 minutes on ice. After washing three times with FACS buffer, 50 μl of phycoerythrin (PE)-conjugated goat anti-human IgGFc (Jackson ImmunoResearch), diluted 1:100 in FACS buffer, was added. After 30 minutes on ice (in the dark), cells were washed three times, and specific binding of the HuMabs was detected by flow cytometry on a FACSCalibur (BD Biosciences). HuMab-KLH was used as a negative control. Mouse anti-TF followed by PE-conjugated anti-mouse IgGFc was used as positive control. Binding curves were analyzed using non-linear regression (sigmoidal dose-response with variable slope) using GraphPad Prism V4.03 software (GraphPad Software, San Diego, Calif., USA).
(§2) Binding of Fab fragments of anti-TF HuMabs to TF was measured by ELISA (coated extracellular domain of TF) and by FACS (TF on BxPC3 cells). ELISA was performed essentially as described supra. Bound Fab fragments were detected using HRP-conjugated donkey-anti human H+L. FACS analysis was performed essentially as described supra. FITC-conjugated goat anti-human IgG (H+L) (Jackson) was used to detect bound lead candidates. Fluorescence was measured on a FACSCantoII. Binding curves were analyzed as described supra, using GraphPad Prism 5 software.

[2] = biological target: T2, TFECDHis (extracellular domain of tissue factor, amino acid 1-251, with C-terminal His tag) (human, UniProt P13726 33-251); assay: ELISA, Fab fragment on coated extracellular domain of TF
T2 construct: range 1-251; The stated range 1-251 starts at residue 1 of NP-001984; also called extracellular domain of TF
Protocol: (§3) The specificity of the obtained anti-TF HuMabs was evaluated by ELISA. ELISA plates (Microlon; Greiner Bio-One) were coated overnight at +4° C. with 0.5 μg/mL of TFECDHis in PBS, pH 7.4. Coated ELISA plates were emptied and blocked for one hour at room temperature with 2% (v/v) chicken serum (Gibco, Paisley, Scotland) in PBS and washed with PBS containing 0.05% Tween 20 (PBST). Subsequently, HuMabs, serially diluted in PBSTC (PBS supplemented with 2% (v/v) chicken serum and 0.05% (v/v) Tween-20), were incubated for 1 hr at RT under shaking conditions (300 rpm). Bound HuMabs were detected using HRP-conjugated goat-anti-human IgG antibodies (Jackson ImmunoResearch) diluted 1:5,000 in PBSTC, which were incubated for 1 hr at RT under shaking conditions (300 rpm). […] HuMab-KLH (a human monoclonal antibody against KLH (keyhole limpet haemocyanin)), was used as a negative control. Mouse anti-human TF (ERL) was used as positive control (HRP labeled anti-mouse IgG as conjugate). Binding curves were analyzed using non-linear regression (sigmoidal dose-response with variable slope) using GraphPad Prism V4.03 software.
as §2

[3] = biological target: T3, murine tissue factor (TF) on transfected HEK293F cells (murine, UniProt P20352 29-294); assay: FACS on transfected HEK293F cells, 30 µg/mL antibody [Figure 18; no figure label on the sheet]
T3 construct: whole, on cells; also called murine TF; TFmm
T3 sequence (looked up): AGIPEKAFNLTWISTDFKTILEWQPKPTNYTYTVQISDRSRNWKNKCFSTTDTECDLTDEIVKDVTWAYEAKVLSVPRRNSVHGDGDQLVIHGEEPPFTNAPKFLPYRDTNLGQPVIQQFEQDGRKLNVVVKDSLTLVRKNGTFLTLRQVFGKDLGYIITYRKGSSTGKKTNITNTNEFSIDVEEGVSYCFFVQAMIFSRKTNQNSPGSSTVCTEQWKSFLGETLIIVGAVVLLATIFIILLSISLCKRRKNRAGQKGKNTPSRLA
Protocol: as §1
To determine domains important for binding of anti-TF HuMabs to human TF, DNA shuffling was performed between human and murine TF. Shuffle constructs were prepared from DNA encoding human TF, by replacing human domains with murine domains and from DNA encoding murine TF by replacing murine domains with human domains.

[4] = biological target: T1, human tissue factor (TF), …; assay: FACS, A431 cells
Protocol: as §1

[5] = biological target: T1, human tissue factor (TF), …; assay: FACS, Bx-PC3 cells
Protocol: as §1

[6] = biological target: T1, human tissue factor (TF), …; assay: FACS, MDA-MB-231 cells
Protocol: as §1

[7] = biological target: T1, human tissue factor (TF), …; assay: cell-based or functional assay
[8] = biological target: T1, human tissue factor (TF), …; assay: cell-based or functional assay; remark: listed apart in the source
[9] = biological target: T4, TF (Innovin) (UniProt P13726 33-295, limits assumed); assay: cell-based or functional assay
[10] = biological target: T4, TF (Innovin); assay: cell-based or functional assay; remark: listed apart in the source
[11] = biological target: T1, human tissue factor (TF), …; assay: cell-based or functional assay; remark: listed apart in the source
[12] = biological target: T1, human tissue factor (TF), …; assay: FACS, A431 cells, 30 µg/mL
Protocol: as §1

[13] = biological target: T1, human tissue factor (TF), …; assay: FACS, Bx-PC3 cells, 30 µg/mL
Protocol: as §1

[14] = biological target: T1, human tissue factor (TF), …; assay: FACS, MDA-MB-231 cells, 30 µg/mL
Protocol: as §1

[15] = biological target: T2, TFECDHis (extracellular domain of …); assay: ELISA, coated TFECDHis, mean of 3
Protocol: as §3

[16] = biological target: T1, human tissue factor (TF), …; assay: FACS, TF transfected CHO cells (S1015-TF)
Protocol: as §1

[17] = biological target: T1, human tissue factor (TF), …; assay: FACS, TF transfected CHO cells (S1015-TF), 7.5 µg/mL
Protocol: as §1

[18] = biological target: T2, TFECDHis (extracellular domain of …); assay: SPR BIAcore 3000, HuMab immobilized, TFECDHis analyte
Protocol: Antibody binding to TF was analyzed by surface plasmon resonance in a BIAcore 3000 (GE Healthcare). TFECDHis was used for the analysis. HuMab antibodies (500 resonance units) were immobilized on the CM-5 sensor chip according to the procedure recommended by the manufacturer. Briefly, after surface activation by EDC and NHS HuMab antibody was injected over the activated CM-5 surface in 10 mM sodium-acetate, pH ranging from 4.0 to 5.5 at 5 μl/min. followed by 1 M Ethanolamine for deactivation. Concentration series of TFECDHis in HBS-EP buffer were injected over the immobilized antibodies at a flow rate of 30 μl/min for 180 sec. Regeneration of the HuMab surface was performed by injection of 10 mM Glycine-HCl pH 2.0 or 10 mM sodium acetate pH 3.0. Kinetic analysis was performed using double reference subtraction and model 1:1 (langmuir) binding analysis.

[19] = biological target: T2, TFECDHis (extracellular domain of …); assay: competition ELISA, inhibition of FVIIa (100 nM) binding to coated TFECDHis
Protocol: ELISA plates were coated overnight with TFECDHis (0.5 μg/mL, 100 μL per well). Plates were emptied, blocked with PBS containing 2% (v/v) chicken serum (1 hour, RT), and emptied again. […] Plates were washed and incubated with swine-anti-rabbit IgG-HRP antibody (1:2,500; DAKO). After washing, the immune complexes were visualized using ABTS as a substrate.

[20] = biological target: T3, murine tissue factor (TF) on …; assay: FACS on transfected HEK293F cells, 30 µg/mL antibody [panel A]

EC50 [1]: 0.143 µg/mL | EC50 [2]: 0.02 µg/mL
B1: HuMab-TF-109 Fab fragment (Fab, V domains shown)
VH: QVQLVESGGGVVQPGRSLRLSCPASGFTFSIYAMHWVRQAPGKGLEWVAVVSNDGYNKYYADSVKGRFTISRDNSKDTLYLQMNSLRAEDTAVYYCARDGQLGRGYFDYWGQGTLVTVSS
VL: EIVLTQSPATLSLSPGERAILSCRASQSVSSYLAWYQQKPGQAPRLLIYDASNRATGIPARFSGSGSGTDFTLTISSLEPEDFAVYYCQQRSNWPLTFGGGTKVEIK
notes: Fab fragment of the HuMab; VH and VL as for the parent antibody

EC50 [2]: 3.14 µg/mL
B2: HuMab-TF-111 Fab fragment (Fab, V domains shown)
VH: QVQLVESGGGVVQPGRSLRLSCAGSGFTFNRYAMYWVRQAPGKGLDWVAVISNDGINKYYADSVKGRFTISRDNSKNTLYLQMNSLRAEDTAVYYCARDHTMVRGAFDYWGQGTLVTVSS
VL: B1 VL with I20T
notes: as for B1

EC50 [1]: 0.132 µg/mL | EC50 [2]: 0.04 µg/mL
B3: HuMab-TF-011 Fab fragment (Fab, V domains shown)
VH: EVQLLESGGGLVQPGGSLRLSCAASGFTFSNYAMSWVRQAPGKGLEWVSSISGSGDYTYYTDSVKGRFTISRDNSKNTLYLQMNSLRAEDTAVYYCARSPWGYYLDSWGQGTLVTVSS
VL: DIQMTQSPPSLSASAGDRVTITCRASQGISSRLAWYQQKPEKAPKSLIYAASSLQSGVPSRFSGSGSGTDFTLTISSLQPEDFATYYCQQYNSYPYTFGQGTKLEIK
notes: Fab fragment of the HuMab; VH and VL as for the parent antibody; also called -011 Fab fragments

EC50 [1]: 0.301 µg/mL | EC50 [2]: 0.03 µg/mL
B4: HuMab-TF-013 Fab fragment (Fab, V domains shown)
VH: EVQLVQSGAEVKKPGESLKISCKGSGYSFTSYWIGWVRQMPGKGLEWMGIIYPGDSDTRYSPSFQGQVTISADKSISTAYLQWSSLKASDTAMYYCARIHRGAGYSSSWPGAFDIWGQGTMVTVSS
VL: B3 VL with P9S, A15V, S31R, R32W, N92D, Y94D, Y96I, K103R
notes: as for B1

EC50 [2]: 1.98 µg/mL
B5: HuMab-TF-098 Fab fragment (Fab, V domains shown)
VH: QVQLVQSGAEVRKPGSSVKVSCKASGGSFNNYPIFWVRQAPGQGFEWMGRIIPILGITAYAQKFQGRVTITADKSTSTAYMELNSLRSEDTAVYYCAGGDDLDAFDIWGQGTMVSVSS
VL: B3 VL with P9S, A15V, R32W
notes: as for B1

binding result [3]: no binding (tested: 30 µg/mL)
B6: anti-TF HuMab 017-D12 (antibody, V domains shown)
VH: EVQLLESGGGLVQPGGSLRLSCAASGFTFSSYAMSWVRQAPGKGLEWVSAISGSGDSTNYADSVKGRFTISRDNSKNTLYLQMNSLRAEDTAVYYCAKDGYFLLWYFDLWGRGTLVTVSS
VL: not shown
notes: Human monoclonal antibody from HuMab mice

EC50 [4]: 6.94 nM | EC50 [5]: 4.98 nM | EC50 [6]: 3.2 nM | % max inhibition of FVIIa induced ERK phosphorylation (A431) [7]: 63% | IC50, inhibition of FVIIa induced ERK phosphorylation (A431) [7]: 7.99 nM | IC50, inhibition of FVIIa induced IL-8 release (MDA-MB-231) [8]: 23.7 nM | max inhibition of FVIIa induced IL-8 release (MDA-MB-231) [8]: 76.2% | % max inhibition of FXa generation [9]: 21% | IC50, inhibition of FXa generation [9]: 0.07 nM | IC50, inhibition of blood coagulation (TF induced clotting time) [10]: 7.3 nM | EC50 of ADCC, Bx-PC3 cells [11]: 0.17 nM | EC50 of ADCC, MDA-MB-231 cells [11]: 0.29 nM | Max MFI [12]: 2530 | Max MFI [13]: 1110 | Max MFI [14]: 1800 | EC50 [15]: 0.46 nM | EC50 [16]: 2.06 nM | Max MFI [17]: 4250 | Kd [18]: 4.51 nM | IC50 [19]: 1.9 nM | max inhibition [19]: 89% | binding result [20]: binds
B7: anti-TF HuMab 003 (antibody, V domains shown)
VH: QVQLVQSGAEVKKPGSSVKVSCKAPRGTFSYYTISWVRQAPGQGLEWMGRIIPILGVANYAQKFQGRVTITADKSTSTAYMELSSLRSEDTAVYYCAREGDRRYFDYWGQGTLVTVSS
VL: AIQLTQSPSSLSASVGDRVTITCRASQDISSALAWYQQKPGKAPKLLIYDASILESGVPSRFSGSGSGTDFTLTISSLQPEDFATYYCQQFNSYPLTFGGGTKVEIK
notes: Human monoclonal antibody from HuMab mice; also called HuMab-TF-003

EC50 [1]: 8.04 µg/mL | EC50 [2]: 0.59 µg/mL
B8: HuMab-TF-044 Fab fragment (Fab, V domains shown)
VH: QVQLVESGGGVVQPGRSLRLSCAASGFTFSDYAMHWVRQAPGKGLEWVAVIPYDGDNKYYADSVKGRFTISRDNSKNTLYLQMNSLRAEDTAVYYCAREDWGLEVDYWGQGALVTVSS
VL: B7 VL with D28G, S30N, I53S
notes: as for B1
